Test results taken from patent US20220195041A1 (IMMUNORIZON, published 2022).

Tests used:
[1] = molecular target: T1, hEGFR-Fc (EGFR extracellular fusion antigen, Cat #344-ER-050, Bio-techne) (human, UniProt P00533 25-645); assay: ELISA, coated hEGFR-Fc (FIG. 18A)
T1 construct: extracellular domain; Bought reagent; also called human EGFR antigen; extracellular domain of hEGFR; not shown: Fc part of the bought fusion
Procedure: (§1) The EGFR antigens hEGFR-Fc (Cat #344-ER-050, Bio-techne) and rhesus EGFR-Fc (Cat #EGR-05252, Acro Biosystems)) were diluted to a 0.05 ug/ml concentration in PBS. Human CD3epsilon (hCD3epsilon-His (Cat #10977-H08S, Sino Biological) and cynomolgus CD3epsilon (Cat #CDE-05226, Acro Biosystems)) were diluted to a 0.01 ug/ml concentration in PBS. ELISA plate (Cat #9018, Corning) wells were filled with 100 ul of antigen suspension. Plates were incubated overnight at 4° C. Wells were blocked with 250 ul 1% BSA in PBST for 1 hr at 37° C. and then washed four times with PBST. All washes were done using Biotek (Elx 405). All construct antibodies were diluted to 15 ug/ml and prepared with 3-fold serial dilutions (12 points, including 0 ug/ml). 100 ul/well of diluted antibody construct solution was added to plate and incubated for 1 hr at 37° C. Plates were washed four times with PBST, then 100 ul/well of anti-human kappa light chain-HRP antibody (1:10000) was added and incubated for 0.5 hr at 37° C. Wells were washed 4 times with PBST, then 100 ul/well of TMB substrate was added and plates were incubated at RT for 5 min. 100 ul/well of 1.0 N HCl was added to terminate the reaction. Plates were read using ELISA plate reader at 450 nm wavelength (SpectraMax M5e). Data Analysis was performed using Graphpad Prism 5 software by using nonlinear regression (curve fit): log (agonist) vs. response, agonist is antibody concentration (nM) and response is OD value.

[2] = molecular target: T2, rhesus EGFR-Fc (rhesus EGFR extracellular fusion antigen, Cat #EGR-05252, Acro Biosystems) (rhesus, UniProt P55245 25-645); assay: ELISA, coated rhesus EGFR-Fc (FIG. 18B)
T2 construct: extracellular domain; Bought reagent; also called rhesus EGFR antigen; extracellular domain of rhesus EGFR; not shown: Fc part of the bought fusion
Procedure: as §1

[3] = molecular target: T3, cyno CD3epsilon-His (cynomolgus CD3epsilon extracellular fusion antigen, Cat #CDE-05226, Acro Biosystems) (cynomolgus, UniProt Q95LI5 22-117); assay: ELISA, coated cyno CD3epsilon-His (FIG. 19B)
T3 construct: extracellular domain; Bought reagent; also called cyno CD3e antigen; not shown: His tag
T3 sequence (looked up): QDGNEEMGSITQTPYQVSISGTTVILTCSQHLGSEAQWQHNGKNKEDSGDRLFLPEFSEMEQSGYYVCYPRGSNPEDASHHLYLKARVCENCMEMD
Procedure: as §1

[4] = molecular target: T4, human CD3epsilon-His (human CD3epsilon extracellular fusion antigen, Cat #10977-H08S, Sino Biological) (human, UniProt P07766 22-126); assay: ELISA, coated human CD3epsilon-His (FIG. 19A)
T4 construct: Bought reagent; also called hCD3epsilon-His; hCD3epsilon; not shown: His tag
Procedure: as §1

[5] = molecular target: T5, human CD3epsilon on Jurkat cells (human, UniProt P07766 22-207); assay: FACS on Jurkat cells (FIG. 25)
T5 construct: Endogenous CD3epsilon on Jurkat T cells, within the CD3/TCR complex; also called Jurkat Cells (Human CD3e); human-CD3e expressing Jurkat cells

Measured: binding result

B1: Construct 4: Precursor Tri-Specific Construct Variable Heavy Variable Light (VHVL), anti-CD3epsilon Fab, two anti-EGFR scFv, HSA and CAP regulatory domains … (bispecific antibody)
heavy: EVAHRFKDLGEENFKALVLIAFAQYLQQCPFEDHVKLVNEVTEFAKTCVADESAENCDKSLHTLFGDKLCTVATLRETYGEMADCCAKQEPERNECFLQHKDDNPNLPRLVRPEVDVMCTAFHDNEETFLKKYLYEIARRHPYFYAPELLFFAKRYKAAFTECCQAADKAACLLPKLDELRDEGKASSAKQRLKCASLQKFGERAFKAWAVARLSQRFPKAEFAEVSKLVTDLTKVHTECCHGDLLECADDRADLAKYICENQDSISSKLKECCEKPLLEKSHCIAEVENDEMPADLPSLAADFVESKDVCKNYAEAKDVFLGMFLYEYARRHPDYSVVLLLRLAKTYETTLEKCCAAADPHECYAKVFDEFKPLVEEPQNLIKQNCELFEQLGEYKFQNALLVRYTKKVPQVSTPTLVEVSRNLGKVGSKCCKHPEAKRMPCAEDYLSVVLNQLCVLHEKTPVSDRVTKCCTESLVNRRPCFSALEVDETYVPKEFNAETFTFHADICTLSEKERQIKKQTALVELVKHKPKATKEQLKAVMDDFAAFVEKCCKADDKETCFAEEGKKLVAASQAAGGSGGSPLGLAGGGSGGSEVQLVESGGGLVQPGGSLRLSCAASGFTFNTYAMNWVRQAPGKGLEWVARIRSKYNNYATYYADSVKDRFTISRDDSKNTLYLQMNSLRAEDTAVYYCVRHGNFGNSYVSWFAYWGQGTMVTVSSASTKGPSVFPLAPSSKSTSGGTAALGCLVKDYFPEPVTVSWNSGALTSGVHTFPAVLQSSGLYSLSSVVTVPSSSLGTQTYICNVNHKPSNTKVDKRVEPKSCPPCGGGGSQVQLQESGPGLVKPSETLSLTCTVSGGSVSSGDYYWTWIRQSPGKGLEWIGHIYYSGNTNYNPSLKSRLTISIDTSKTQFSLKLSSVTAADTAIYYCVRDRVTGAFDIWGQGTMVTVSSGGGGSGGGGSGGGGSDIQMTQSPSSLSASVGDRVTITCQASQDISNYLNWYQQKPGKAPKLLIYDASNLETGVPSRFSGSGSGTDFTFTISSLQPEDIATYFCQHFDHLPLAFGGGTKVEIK
light: QDGNEEMGGITQTPYKVSISGTTVILTGGSGGSPLGLAGGGSGGSQAVVTQEPSLTVSPGGTVTLTCRSSTGAVTTSNYANWVQQKPGQAPRGLIGGTNKRAPGTPARFSGSLLGGKAALTLSGVQPEDEAEYYCALWYSNLWVFGGGTKLTVLGQPKAAPSVTLFPPSSEELQANKATLVCLISDFYPGAVTVAWKADSSPVKAGVETTTPSKQSNNKYAASSYLSLTPEQWKSHRSYSCQVTHEGSTVEKTVAPTECPPCSGGGSQVQLQESGPGLVKPSETLSLTCTVSGGSVSSGDYYWTWIRQSPGKGLEWIGHIYYSGNTNYNPSLKSRLTISIDTSKTQFSLKLSSVTAADTAIYYCVRDRVTGAFDIWGQGTMVTVSSGGGGSGGGGSGGGGSDIQMTQSPSSLSASVGDRVTITCQASQDISNYLNWYQQKPGKAPKLLIYDASNLETGVPSRFSGSGSGTDFTFTISSLQPEDIATYFCQHFDHLPLAFGGGTKVEIK
notes: Uncleaved precursor (no MMP9 treatment); also called ProTriBody-C (VHVL); Pro-Tribody-C (VHVL)
binds: [1] | [2]

B2: Construct 6: Precursor Tri-Specific Non-Cleavable (NC) Variable Heavy Variable Light (VHVL), anti-CD3epsilon Fab, two anti-EGFR scFv, HSA and CAP regulatory … (bispecific antibody)
heavy: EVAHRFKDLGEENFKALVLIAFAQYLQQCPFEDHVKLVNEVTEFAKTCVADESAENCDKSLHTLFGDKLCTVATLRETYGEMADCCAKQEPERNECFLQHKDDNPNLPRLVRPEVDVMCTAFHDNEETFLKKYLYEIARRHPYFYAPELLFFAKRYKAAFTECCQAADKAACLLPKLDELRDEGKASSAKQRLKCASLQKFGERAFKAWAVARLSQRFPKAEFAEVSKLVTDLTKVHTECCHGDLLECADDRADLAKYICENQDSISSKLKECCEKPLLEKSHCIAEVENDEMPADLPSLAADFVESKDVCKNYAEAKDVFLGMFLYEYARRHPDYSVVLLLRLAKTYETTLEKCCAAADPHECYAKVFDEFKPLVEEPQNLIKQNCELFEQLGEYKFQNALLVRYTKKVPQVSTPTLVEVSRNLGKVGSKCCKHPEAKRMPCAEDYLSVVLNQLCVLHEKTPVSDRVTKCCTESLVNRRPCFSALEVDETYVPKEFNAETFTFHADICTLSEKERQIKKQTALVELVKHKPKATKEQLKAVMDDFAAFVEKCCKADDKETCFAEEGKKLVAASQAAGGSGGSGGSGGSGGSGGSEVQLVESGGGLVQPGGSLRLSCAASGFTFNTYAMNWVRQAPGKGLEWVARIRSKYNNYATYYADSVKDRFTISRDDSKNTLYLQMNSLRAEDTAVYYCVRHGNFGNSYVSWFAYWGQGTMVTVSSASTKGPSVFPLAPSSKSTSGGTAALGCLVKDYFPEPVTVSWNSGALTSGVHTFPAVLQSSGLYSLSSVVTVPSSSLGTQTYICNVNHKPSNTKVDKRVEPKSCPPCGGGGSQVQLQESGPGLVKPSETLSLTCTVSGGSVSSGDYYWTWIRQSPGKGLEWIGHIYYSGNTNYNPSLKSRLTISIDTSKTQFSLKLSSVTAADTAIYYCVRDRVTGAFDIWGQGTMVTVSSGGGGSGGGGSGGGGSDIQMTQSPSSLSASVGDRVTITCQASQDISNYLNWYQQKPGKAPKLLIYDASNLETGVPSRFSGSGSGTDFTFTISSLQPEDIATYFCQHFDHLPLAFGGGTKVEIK
light: QDGNEEMGGITQTPYKVSISGTTVILTGGSGGSGGSGGSGGSGGSQAVVTQEPSLTVSPGGTVTLTCRSSTGAVTTSNYANWVQQKPGQAPRGLIGGTNKRAPGTPARFSGSLLGGKAALTLSGVQPEDEAEYYCALWYSNLWVFGGGTKLTVLGQPKAAPSVTLFPPSSEELQANKATLVCLISDFYPGAVTVAWKADSSPVKAGVETTTPSKQSNNKYAASSYLSLTPEQWKSHRSYSCQVTHEGSTVEKTVAPTECPPCSGGGSQVQLQESGPGLVKPSETLSLTCTVSGGSVSSGDYYWTWIRQSPGKGLEWIGHIYYSGNTNYNPSLKSRLTISIDTSKTQFSLKLSSVTAADTAIYYCVRDRVTGAFDIWGQGTMVTVSSGGGGSGGGGSGGGGSDIQMTQSPSSLSASVGDRVTITCQASQDISNYLNWYQQKPGKAPKLLIYDASNLETGVPSRFSGSGSGTDFTFTISSLQPEDIATYFCQHFDHLPLAFGGGTKVEIK
notes: Not cleaved by MMP9, so the same molecule stands in the assays with and without MMP9; also called ProTriBody-NC (VHVL); Pro-Tribody-NC (VHVL)
binds: [1] | [2]

B3: Construct 3: Precursor Tri-Specific Variable Light-Variable Heavy (VLVH), anti-CD3epsilon Fab, two anti-EGFR scFv, HSA and CAP regulatory domains linked by … (bispecific antibody)
heavy: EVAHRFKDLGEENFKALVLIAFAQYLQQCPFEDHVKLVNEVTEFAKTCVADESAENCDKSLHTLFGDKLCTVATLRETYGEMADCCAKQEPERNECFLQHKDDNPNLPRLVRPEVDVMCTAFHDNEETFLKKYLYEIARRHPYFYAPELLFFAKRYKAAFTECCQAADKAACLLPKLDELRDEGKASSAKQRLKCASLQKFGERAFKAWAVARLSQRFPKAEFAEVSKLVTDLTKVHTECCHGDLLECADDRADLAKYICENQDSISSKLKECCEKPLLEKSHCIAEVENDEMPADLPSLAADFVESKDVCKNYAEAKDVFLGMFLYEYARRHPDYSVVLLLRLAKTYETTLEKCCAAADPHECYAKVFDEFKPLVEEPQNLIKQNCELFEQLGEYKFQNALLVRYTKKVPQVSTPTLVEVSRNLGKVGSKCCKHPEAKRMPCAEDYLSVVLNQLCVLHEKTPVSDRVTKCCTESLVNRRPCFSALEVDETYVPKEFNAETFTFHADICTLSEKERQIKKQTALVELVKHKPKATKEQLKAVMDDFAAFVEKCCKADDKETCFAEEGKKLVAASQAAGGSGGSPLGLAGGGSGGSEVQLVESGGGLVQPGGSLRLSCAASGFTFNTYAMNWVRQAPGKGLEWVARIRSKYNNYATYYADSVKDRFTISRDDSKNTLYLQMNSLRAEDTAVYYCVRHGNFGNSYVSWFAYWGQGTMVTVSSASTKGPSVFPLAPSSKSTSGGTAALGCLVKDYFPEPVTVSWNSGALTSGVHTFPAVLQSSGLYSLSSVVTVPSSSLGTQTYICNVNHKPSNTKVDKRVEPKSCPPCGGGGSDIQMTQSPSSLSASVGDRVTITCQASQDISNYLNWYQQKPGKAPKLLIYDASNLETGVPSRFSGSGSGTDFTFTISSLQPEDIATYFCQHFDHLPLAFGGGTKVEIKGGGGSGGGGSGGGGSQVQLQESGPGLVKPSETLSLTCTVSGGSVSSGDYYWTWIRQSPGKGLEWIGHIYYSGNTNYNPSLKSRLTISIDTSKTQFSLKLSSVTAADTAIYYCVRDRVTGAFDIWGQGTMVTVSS
light: QDGNEEMGGITQTPYKVSISGTTVILTGGSGGSPLGLAGGGSGGSQAVVTQEPSLTVSPGGTVTLTCRSSTGAVTTSNYANWVQQKPGQAPRGLIGGTNKRAPGTPARFSGSLLGGKAALTLSGVQPEDEAEYYCALWYSNLWVFGGGTKLTVLGQPKAAPSVTLFPPSSEELQANKATLVCLISDFYPGAVTVAWKADSSPVKAGVETTTPSKQSNNKYAASSYLSLTPEQWKSHRSYSCQVTHEGSTVEKTVAPTECPPCSGGGSDIQMTQSPSSLSASVGDRVTITCQASQDISNYLNWYQQKPGKAPKLLIYDASNLETGVPSRFSGSGSGTDFTFTISSLQPEDIATYFCQHFDHLPLAFGGGTKVEIKGGGGSGGGGSGGGGSQVQLQESGPGLVKPSETLSLTCTVSGGSVSSGDYYWTWIRQSPGKGLEWIGHIYYSGNTNYNPSLKSRLTISIDTSKTQFSLKLSSVTAADTAIYYCVRDRVTGAFDIWGQGTMVTVSS
notes: Uncleaved precursor, about 170 kDa; also called ProTriBody-C EGFR (VL-VH); Precursor Tri-body construct (VL-VH)
not listed: [5]
binds: all other assays above

B4: Construct 5: Precursor Tri-Specific Non-Cleavable (NC) Variable Light Variable Heavy (VLVH), anti-CD3epsilon Fab, two anti-EGFR scFv, HSA and CAP regulatory … (bispecific antibody)
heavy: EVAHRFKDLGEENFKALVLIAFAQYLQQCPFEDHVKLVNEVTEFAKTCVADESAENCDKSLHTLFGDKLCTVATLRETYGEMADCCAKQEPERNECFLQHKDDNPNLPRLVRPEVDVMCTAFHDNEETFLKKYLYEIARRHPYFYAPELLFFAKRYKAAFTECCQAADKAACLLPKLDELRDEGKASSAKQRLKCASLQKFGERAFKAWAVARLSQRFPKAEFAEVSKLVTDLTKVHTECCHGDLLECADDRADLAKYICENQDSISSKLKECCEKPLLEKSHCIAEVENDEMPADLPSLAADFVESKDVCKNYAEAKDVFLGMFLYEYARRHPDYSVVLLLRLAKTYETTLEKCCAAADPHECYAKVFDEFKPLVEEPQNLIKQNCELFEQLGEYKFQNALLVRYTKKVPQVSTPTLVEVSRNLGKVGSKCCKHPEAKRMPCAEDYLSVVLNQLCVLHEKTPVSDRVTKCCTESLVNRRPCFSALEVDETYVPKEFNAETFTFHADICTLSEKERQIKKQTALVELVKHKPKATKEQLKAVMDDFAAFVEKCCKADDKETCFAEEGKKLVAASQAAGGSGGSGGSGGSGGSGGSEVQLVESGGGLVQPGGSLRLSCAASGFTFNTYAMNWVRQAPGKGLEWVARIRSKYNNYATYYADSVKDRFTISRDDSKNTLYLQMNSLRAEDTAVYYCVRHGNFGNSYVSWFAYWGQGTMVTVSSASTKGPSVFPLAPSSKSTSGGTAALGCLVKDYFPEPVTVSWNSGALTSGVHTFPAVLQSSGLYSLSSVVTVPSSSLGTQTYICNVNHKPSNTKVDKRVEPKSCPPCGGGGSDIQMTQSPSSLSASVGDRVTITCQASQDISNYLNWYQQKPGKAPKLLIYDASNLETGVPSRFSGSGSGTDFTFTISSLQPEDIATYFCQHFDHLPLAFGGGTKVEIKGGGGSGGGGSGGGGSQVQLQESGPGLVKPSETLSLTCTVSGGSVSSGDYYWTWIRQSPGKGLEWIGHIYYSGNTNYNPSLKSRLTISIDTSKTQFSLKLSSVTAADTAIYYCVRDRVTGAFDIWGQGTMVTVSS
light: QDGNEEMGGITQTPYKVSISGTTVILTGGSGGSGGSGGSGGSGGSQAVVTQEPSLTVSPGGTVTLTCRSSTGAVTTSNYANWVQQKPGQAPRGLIGGTNKRAPGTPARFSGSLLGGKAALTLSGVQPEDEAEYYCALWYSNLWVFGGGTKLTVLGQPKAAPSVTLFPPSSEELQANKATLVCLISDFYPGAVTVAWKADSSPVKAGVETTTPSKQSNNKYAASSYLSLTPEQWKSHRSYSCQVTHEGSTVEKTVAPTECPPCSGGGSDIQMTQSPSSLSASVGDRVTITCQASQDISNYLNWYQQKPGKAPKLLIYDASNLETGVPSRFSGSGSGTDFTFTISSLQPEDIATYFCQHFDHLPLAFGGGTKVEIKGGGGSGGGGSGGGGSQVQLQESGPGLVKPSETLSLTCTVSGGSVSSGDYYWTWIRQSPGKGLEWIGHIYYSGNTNYNPSLKSRLTISIDTSKTQFSLKLSSVTAADTAIYYCVRDRVTGAFDIWGQGTMVTVSS
notes: also called ProTriBody-NC EGFR (VL-VH); Non-Cleavable Precursor Tri-body construct (VL-VH)
not listed: [5]
binds: all other assays above

B5: Construct 1: Tri-Specific variable light chain-variable heavy chain (VLVH), anti-CD3epsilon Fab with two anti-EGFR scFv (VL-VH), no regulatory domains (bispecific antibody)
heavy: GGSGGSEVQLVESGGGLVQPGGSLRLSCAASGFTFNTYAMNWVRQAPGKGLEWVARIRSKYNNYATYYADSVKDRFTISRDDSKNTLYLQMNSLRAEDTAVYYCVRHGNFGNSYVSWFAYWGQGTMVTVSSASTKGPSVFPLAPSSKSTSGGTAALGCLVKDYFPEPVTVSWNSGALTSGVHTFPAVLQSSGLYSLSSVVTVPSSSLGTQTYICNVNHKPSNTKVDKRVEPKSCPPCGGGGSDIQMTQSPSSLSASVGDRVTITCQASQDISNYLNWYQQKPGKAPKLLIYDASNLETGVPSRFSGSGSGTDFTFTISSLQPEDIATYFCQHFDHLPLAFGGGTKVEIKGGGGSGGGGSGGGGSQVQLQESGPGLVKPSETLSLTCTVSGGSVSSGDYYWTWIRQSPGKGLEWIGHIYYSGNTNYNPSLKSRLTISIDTSKTQFSLKLSSVTAADTAIYYCVRDRVTGAFDIWGQGTMVTVSS
light: GGSGGSQAVVTQEPSLTVSPGGTVTLTCRSSTGAVTTSNYANWVQQKPGQAPRGLIGGTNKRAPGTPARFSGSLLGGKAALTLSGVQPEDEAEYYCALWYSNLWVFGGGTKLTVLGQPKAAPSVTLFPPSSEELQANKATLVCLISDFYPGAVTVAWKADSSPVKAGVETTTPSKQSNNKYAASSYLSLTPEQWKSHRSYSCQVTHEGSTVEKTVAPTECPPCSGGGSDIQMTQSPSSLSASVGDRVTITCQASQDISNYLNWYQQKPGKAPKLLIYDASNLETGVPSRFSGSGSGTDFTFTISSLQPEDIATYFCQHFDHLPLAFGGGTKVEIKGGGGSGGGGSGGGGSQVQLQESGPGLVKPSETLSLTCTVSGGSVSSGDYYWTWIRQSPGKGLEWIGHIYYSGNTNYNPSLKSRLTISIDTSKTQFSLKLSSVTAADTAIYYCVRDRVTGAFDIWGQGTMVTVSS
notes: Heterodimer of one HC and one LC polypeptide (about 100 kDa), no Fc; also called TriBody (VLVH); Tribody EGFR (VL-VH)
not listed: [5]
binds: all other assays above

B6: Construct 2: Tri-Specific variable heavy chain-variable light chain (VHVL), anti-CD3epsilon Fab with two anti-EGFR scFv (VH-VL), no regulatory domains (bispecific antibody)
heavy: GGSGGSEVQLVESGGGLVQPGGSLRLSCAASGFTFNTYAMNWVRQAPGKGLEWVARIRSKYNNYATYYADSVKDRFTISRDDSKNTLYLQMNSLRAEDTAVYYCVRHGNFGNSYVSWFAYWGQGTMVTVSSASTKGPSVFPLAPSSKSTSGGTAALGCLVKDYFPEPVTVSWNSGALTSGVHTFPAVLQSSGLYSLSSVVTVPSSSLGTQTYICNVNHKPSNTKVDKRVEPKSCPPCGGGGSQVQLQESGPGLVKPSETLSLTCTVSGGSVSSGDYYWTWIRQSPGKGLEWIGHIYYSGNTNYNPSLKSRLTISIDTSKTQFSLKLSSVTAADTAIYYCVRDRVTGAFDIWGQGTMVTVSSGGGGSGGGGSGGGGSDIQMTQSPSSLSASVGDRVTITCQASQDISNYLNWYQQKPGKAPKLLIYDASNLETGVPSRFSGSGSGTDFTFTISSLQPEDIATYFCQHFDHLPLAFGGGTKVEIK
light: GGSGGSQAVVTQEPSLTVSPGGTVTLTCRSSTGAVTTSNYANWVQQKPGQAPRGLIGGTNKRAPGTPARFSGSLLGGKAALTLSGVQPEDEAEYYCALWYSNLWVFGGGTKLTVLGQPKAAPSVTLFPPSSEELQANKATLVCLISDFYPGAVTVAWKADSSPVKAGVETTTPSKQSNNKYAASSYLSLTPEQWKSHRSYSCQVTHEGSTVEKTVAPTECPPCSGGGSQVQLQESGPGLVKPSETLSLTCTVSGGSVSSGDYYWTWIRQSPGKGLEWIGHIYYSGNTNYNPSLKSRLTISIDTSKTQFSLKLSSVTAADTAIYYCVRDRVTGAFDIWGQGTMVTVSSGGGGSGGGGSGGGGSDIQMTQSPSSLSASVGDRVTITCQASQDISNYLNWYQQKPGKAPKLLIYDASNLETGVPSRFSGSGSGTDFTFTISSLQPEDIATYFCQHFDHLPLAFGGGTKVEIK
notes: Heterodimer of one HC and one LC polypeptide, no Fc; also called TriBody (VHVL); Tribody (VHVL)
binds: all assays above
